Results reported in PMC3281585 (Science (New York, N.Y.), 2011).

B1: gp44 protein of the T4 clamp loader (natural protein, bacteriophage T4)
chain: MITVNEKEHILEQKYRPSTIDECILPAFDKETFKSITSKGKIPHIILHSPSPGTGKTTVAKALCHDVNADMMFVNGSDCKIDFVRGPLTNFASAASFDGRQKVIVIDEFDRSGLAESQRHLRSFMEAYSSNCSIIITANNIDGIIKPLQSRCRVITFGQPTDEDKIEMMKQMIRRLTEICKHEGIAIADMKVVAALVKKNFPDFRKTIGELDSYSSKGVLDAGILSLVTNDRGAIDDVLESLKNKDVKQLRALAPKYAADYSWFVGKLAEEIYSRVTPQSIIRMYEIVGENNQYHGIAANTELHLAYLFIQLACEMQWK

How the values were obtained:
[1] = target: B1; assay: crystal structure
[2] = target: the molecule itself; assay: crystal structure

Row | Binder | binding result [1] | binding result [2]
1 | gp62 protein of the T4 clamp loader (natural protein, bacteriophage T4) SLFKDDIQLNEHQVAWYSKDWTAVQSAADSFKEKAENEFFEIIGAINNKTKCSIAQKDYSKFMVENALSQFPECMPAVYAMNLIGSGLSDEAHFNYLMAAVPRGKRYGKWAKLVEDSTEVLIIKLLAKRYQVNTNDAINYKSILTKNGKLPLVLKELKGLVTDDFLKEVTKNVKEQKQLKKLALEW | binds | 
2 | B1 |  | binds
